Legend:
[1] = Monitoring of the blood clearance profile of peptide-dye conjugates; format: in vivo, Sprague-Dawley or Fischer 344 rats; details: bolus injection in lateral tail vein; monitored at 830 nm after excitation at 780 nm
Text: A laser of appropriate wavelength for excitation of the dye chromophore was directed into one end of a fiber optic bundle and the other end was positioned a few millimeters from the ear of a rat. A second fiber optic bundle was also positioned near the same ear to detect the emitted fluorescent light and the other end was directed into the optics and electronics for data collection. An interference filter (IF) in the collection optics train was used to select emitted fluorescent light of the appropriate wavelength for the dye chromophore.
Sprague-Dawley or Fischer 344 rats were used in these studies. The animals were anesthetized with urethane administered via intraperitoneal injection at a dose of 1.35 g/kg body weight. After the animals had achieved the desired plane of anesthesia, a 21 gauge butterfly with 12″ tubing was placed in the lateral tail vein of each animal and flushed with heparinized saline. The animals were placed onto a heating pad and kept warm throughout the entire study. […]
Incident laser light delivered from the fiber optic was centered on the affixed ear. Data acquisition was then initiated, and a background reading of fluorescence was obtained prior to administration of the test agent. […] The data were analyzed using a standard sigma plot software program for a one compartment model.

[2] = system: pancreatic acinar carcinoma (CA20948); test: Imaging of individual organs removed from CA20948 tumor-bearing rat; format: in vivo; details: organs removed about 24 hours post administration
Experimental: Individual organs were removed at about 24 hours post Cytate 1 administration and imaged.

[3] = system: pancreatic acinar carcinoma expressing the SST-2 receptor (CA20948); test: In vivo fluorescence imaging of rat pancreatic acinar carcinoma (CA20948); design: species or system Lewis rat
Text: (§1) A non-invasive in vivo fluorescence imaging apparatus was employed to assess the efficacy of contrast agents developed for tumor detection in animal models. A LaserMax Inc. laser diode of nominal wavelength 780 nm and nominal power of 40 mW was used. The detector was a Princeton Instruments model RTE/CCD-1317-K/2 CCD camera with a Rodenstock 10 mm F2 lens (stock #542.032.002.20) attached. An 830 nm interference […] (CVI Laser Corp., part # F10-830-4-2) was mounted in front of the CCD input lens such that only emitted fluorescent light from the contrast agent was imaged. Typically, an image of the animal was taken pre-injection of contrast agent. This image was subsequently subtracted (pixel by pixel) from the post injection images. However, the background subtraction was […] done once the animal had been removed from the sample area and returned at a later time for images taken several hours post injection.
The imaging apparatus and the procedure used are described in Example 12. Rat pancreatic acinar carcinoma expressing the SST-2 receptor (CA20948) was induced by solid implant technique in the left flank area, and palpable masses were detected nine days post implant. The images obtained at 2 and 30 minutes post injection are shown in FIG. 7E-F. FIGS. 7E-F are images of a rat with an induced pancreatic acinar carcinoma (CA20948) expressing the SST-2 receptor imaged at two minutes (FIG. 7E) and 30 minutes (FIG. 7F) post injection.
The imaging apparatus and the procedure used are described in Example 12 except that each animal received 500 μl of a 1.0 mg/mL solution of Cytate 1 solution of 25% dimethylsulfoxide in water.
Rat pancreatic acinar carcinoma expressing the SST-2 receptor (CA20948) were induced by solid implant technique in the left flank area, and palpable masses were detected 24 days post implant. Images were obtained at various times post injection.
Cytate 1 was evaluated in the CA20948 Lewis rat model. […] At 27 hours post injection, the animal was again imaged (FIG. 9B).

[4] = system: Prostrate tumors (Dunning R3327-H); test: In vivo fluorescence imaging of prostatic carcinoma (R3327-H); design: species or system young male Copenhagen rats
Text: as §1
The imaging apparatus and the procedure used are described as in Example 12. Prostrate tumors (Dunning R3327-H) were induced in young male Copenhagen rats in the left flank area from a solid implant. These tumors grow very slowly and palpable masses were present 4-5 months post implant. FIGS. 7C-D are images of a rat with an induced prostatic carcinoma tumor (R3327-H) imaged at two minutes (FIG. 7C) and 30 minutes (FIG. 7D) post injection.

DSL 6A tumors = test: In vivo fluorescence imaging of pancreatic ductal adenocarcinoma (DSL 6A); design: species or system male Lewis rats
Text: as §1
DSL 6A tumors were induced in male Lewis rats in the left flank area by the introduction of material from a solid (donor) implant and the tumors were palpable in approximately 14 days. The animals were anesthetized with xylazine; ketamine; acepromazine 1.5:1.5:0.5 at 0.8 mL/kg via intramuscular injection. The area of the tumor (left flank) was shaved to expose tumor and surrounding surface area. […]

[5] = 500 μl of 1.0 mg/mL solution in 25% dimethylsulfoxide in water, CA20948 tumor

Structure (SMILES) | fluorescence signal in blood (ear) after bolus injection [1] | organ uptake: adrenals [2] | organ uptake: heart [2] | organ uptake: liver [2] | organ uptake: muscle [2] | organ uptake: pancreas [2] | organ uptake: spleen [2] | organ uptake: tumor tissue [2] | time at which uptake into the tumor was maximal [3, 5] | time at which uptake into the tumor was seen [3, 5] | uptake at 45 minutes in rats with the CA20948 tumor cell line ([3]; 45 minutes post injection) | localization of dye in the tumor ([3]; 45 minutes post injection, CA20948 Lewis rat model) | tumor visualization ([3]; 27 hours post injection, CA20948 Lewis rat model) | persistence of dye fluorescence in the tumor ([3]; CA20948 tumor, post-injection) | dye intensity in the tumor ([4]; 30 minutes post-ICG injection, R3327-H tumor) | perfusion of the agent into the tumor ([4]; Dunning R3327H (prostate) tumor line, CCD camera) | dye intensity in the tumor (DSL 6A tumors; 30 minutes post-ICG injection, bolus injection of 0.5 ml aqueous solution of ICG, DSL 6A tumor) | perfusion of the agent into the tumor (DSL 6A tumors; DSL 6/A (pancreatic) tumor line, CCD camera) | dye intensity in the tumor ([3]; 30 minutes post-ICG injection, CA20948 tumor) | perfusion of the agent into the tumor ([3]; CA20948 (pancreatic) tumor line, CCD camera)
C[C@@H](O)[C@H](NC(=O)[C@@H]1CSSC[C@H](NC(=O)[C@@H](Cc2ccccc2)NC(=O)CCN2C(=CC=CC=CC=CC3=[N+](CCC(=O)O)c4ccc5ccccc5c4C3(C)C)C(C)(C)c3c2ccc2ccccc32)C(=O)N[C@@H](Cc2ccc(O)cc2)C(=O)N[C@H](Cc2c[nH]c3ccccc23)C(=O)N[C@@H](CCCCN)C(=O)N[C@@H]([C@@H](C)O)C(=O)N1)C(=O)O [Cytate 1, monoOctreotate-Bisethylcarboxymethylindocyanine dye] | rapidly increased to a peak value. The signal then decayed as a function of time | high uptake | significantly lower uptake | significantly lower uptake | significantly lower uptake | high uptake | significantly lower uptake | high uptake | about five | two | still quite intense | localization of this dye was observed in the tumor | Tumor visualization was easily observed | remained intense in the tumor for several hours |  |  |  |  |  | 
C[C@@H](O)[C@H](NC(=O)[C@@H]1CSSC[C@H](NC(=O)[C@@H](Cc2ccccc2)NC(=O)CCN2C(=CC=CC=CC=CC3=[N+](CCC(=O)N[C@H](Cc4ccccc4)C(=O)N[C@H]4CSSC[C@@H](C(=O)N[C@H](C(=O)O)[C@@H](C)O)NC(=O)[C@H]([C@@H](C)O)NC(=O)[C@H](CCCCN)NC(=O)[C@@H](Cc5c[nH]c6ccccc56)NC(=O)[C@H](Cc5ccc(O)cc5)NC4=O)c4ccc5ccccc5c4C3(C)C)C(C)(C)c3c2ccc2ccccc32)C(=O)N[C@@H](Cc2ccc(O)cc2)C(=O)N[C@H](Cc2c[nH]c3ccccc23)C(=O)N[C@@H](CCCCN)C(=O)N[C@@H]([C@@H](C)O)C(=O)N1)C(=O)O [Cytate 2, bisOctreotate-Bisethylcarboxymethylindocyanine dye] | rapidly increased to a peak value. The signal then decayed as a function of time |  |  |  |  |  |  |  |  |  |  |  |  |  |  |  |  |  |  | 
CC1(C)C(/C=C/C=C/C=C/C=C2\N(CCCCS(=O)(=O)O)c3ccc4ccccc4c3C2(C)C)=[N+](CCCCS(=O)(=O)[O-])c2ccc3ccccc3c21 [ICG, indocyanine green] |  |  |  |  |  |  |  |  |  |  | mostly cleared |  |  |  | considerably diminished | slow perfusion of the agent over time into the tumor | considerably diminished | slow perfusion of the agent over time into the tumor | considerably diminished and almost absent | only a slight but transient perfusion that was absent after only 30 minutes post injection
